± gives the standard deviation of the averaged measurements.
Tested on: ATP
Assay: switch fluorescence ratio, 500 uM ATP over buffer (Cy3 cluster intensity, sum of 5 cycles each) (fold (ratio)); higher = stronger signal-on switching upon ATP binding; sequences stand for … in TCGTCGGCAGCGTCAGATGTGTATAAGAGACAGTTTTTTTTTTTTTTTTTTTTTTTTT…TC
Conditions: aptamer strand: ATP DNA aptamer (quencher-CACCTGGGGGAGTATTGCGGAGGAAGG + anchor), 100 nM annealed; ATP concentration: 500 uM
Outline: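 Cy3-labelled switching-strand clusters on a modified Illumina MiSeq flow-cell were annealed to 100 nM quencher-labelled ATP aptamer and imaged first in selection buffer, then after 15 min with 500 uM ATP at 22 °C. NaOH stripping and re-annealing separated each of five buffer/ATP cycles, and clusters outside 100-1000 RFU were excluded. The fluorescence ratio sums target-cycle Cy3 intensity over buffer-cycle Cy3 intensity per cluster and averages it per switch-domain sequence.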
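Note: ATP exposure 15 min at 22 °C before imaging.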

| Sequence | switch fluorescence ratio |
| --- | --- |
| GCTTAATTAG | 1.02 ± 0.017 |
| GCTTACTGTG | 1.01 ± 0.037 |
| GCTTAGGGTG | 1.01 ± 0.015 |
| GCTTAGTGGG | 0.954 ± 0.013 |
| GCTTATAATT | 0.991 ± 0.013 |
| GCTTATCCTG | 0.982 ± 0.041 |
| GCTTATCGGT | 0.996 ± 0.018 |
| GCTTCAGAAA | 1 ± 0.066 |
| GCTTCAGGG | 1 ± 0.019 |
| GCTTCCCAGC | 1.19 ± 0.032 |
| GCTTCGGGCC | 0.991 ± 0.015 |
| GCTTCTATGC | 1.02 ± 0.037 |
| GCTTGAAGGG | 1.01 ± 0.027 |
| GCTTGAAGTT | 0.991 ± 0.068 |
| GCTTGAATTT | 0.984 ± 0.02 |
| GCTTGAGTAC | 0.992 ± 0.037 |
| GCTTGATACG | 1.06 ± 0.099 |
| GCTTGCATGC | 1.04 ± 0.022 |
| GCTTGCGGGG | 0.9774 ± 0.0015 |
| GCTTGGAGAG | 0.99 ± 0.013 |
| GCTTGGCAGT | 1.03 ± 0.018 |
| GCTTGGCTCG | 1.01 ± 0.027 |
| GCTTGGCTTG | 1.02 ± 0.025 |

| Sequence | switch fluorescence ratio |
| --- | --- |
| GCTTGGTGCA | 0.997 ± 0.031 |
| GCTTGGTGTC | 1.05 ± 0.014 |
| GCTTGTACGG | 1.01 ± 0.039 |
| GCTTGTTTGA | 1.01 ± 0.014 |
| GCTTTACCAG | 0.989 ± 0.013 |
| GCTTTAGTGG | 0.963 ± 0.012 |
| GCTTTCAGGG | 1.01 ± 0.025 |
| GCTTTGGGAA | 1.03 ± 0.04 |
| GCTTTTGCAC | 1.028 ± 0.0078 |
| GCTTTTGGCG | 1.02 ± 0.021 |
| GCTTTTGGTA | 1.002 ± 0.0095 |
| GCTTTTGTGG | 0.986 ± 0.035 |
| GCTTTTTGGC | 1.03 ± 0.063 |
| GCTTTTTTGG | 0.994 ± 0.025 |
| GGAAAAACGT | 0.998 ± 0.015 |
| GGAAAAAGGA | 0.9423 ± 0.0081 |
| GGAAAAAGGT | 1.05 ± 0.14 |
| GGAAAATTTA | 0.963 ± 0.059 |
| GGAAACGGGT | 1.02 ± 0.014 |
| GGAAACTCGG | 0.986 ± 0.029 |
| GGAAACTTTT | 1.07 ± 0.098 |
| GGAAAGGTCG | 1.04 ± 0.039 |
| GGAAATCGGG | 0.989 ± 0.027 |

| Sequence | switch fluorescence ratio |
| --- | --- |
| GGAAATGGTG | 1.1 ± 0.11 |
| GGAAATGTTG | 0.991 ± 0.041 |
| GGAACGCAGG | 0.9981 ± 0.0022 |
| GGAACGGGGT | 1.01 ± 0.048 |
| GGAAGATACG | 1.03 ± 0.015 |
| GGAAGATGTG | 1.02 ± 0.016 |
| GGAAGCTTAA | 1.048 ± 0.0032 |
| GGAAGGATTC | 0.999 ± 0.013 |
| GGAAGGGAAC | 0.988 ± 0.033 |
| GGAAGGGCGA | 0.9569 ± 0.0068 |
| GGAAGGGGTG | 1.01 ± 0.035 |
| GGAAGGGGTT | 1.03 ± 0.089 |
| GGAAGGTAAT | 1 ± 0.048 |
| GGAAGGTGGT | 0.987 ± 0.024 |
| GGAAGTTGGG | 0.98 ± 0.023 |
| GGAAGTTTTT | 0.9946 ± 0.0079 |
| GGAATAAGGG | 0.995 ± 0.015 |
| GGAATACGAT | 1.09 ± 0.16 |
| GGAATAGCGG | 0.993 ± 0.029 |
| GGAATATATA | 0.951 ± 0.013 |
| GGAATATTGG | 1.02 ± 0.019 |
| GGAATCAGGT | 1.014 ± 0.0065 |
| GGAATCCTTT | 0.998 ± 0.0088 |

| Sequence | switch fluorescence ratio |
| --- | --- |
| GGAATCGGCG | 0.988 ± 0.017 |
| GGAATCTAAC | 1.03 ± 0.048 |
| GGAATGCTTC | 1.06 ± 0.041 |
| GGAATGGATA | 1 ± 0.035 |
| GGAATGGGGT | 0.997 ± 0.024 |
| GGAATGGGTG | 1 ± 0.057 |
| GGAATTATTT | 1.017 ± 0.01 |
| GGAATTCCCG | 0.98 ± 0.054 |
| GGAATTGGTT | 1.01 ± 0.061 |
| GGAATTTAGG | 1 ± 0.015 |
| GGAATTTTGC | 1.03 ± 0.031 |
| GGAATTTTTT | 0.9887 ± 0.0051 |
| GGACACGCAG | 1.02 ± 0.047 |
| GGACACGGTA | 1.12 ± 0.029 |
| GGACACGTTG | 1.05 ± 0.083 |
| GGACAGGGGG | 0.9633 ± 0.0051 |
| GGACATTGAC | 1.08 ± 0.02 |
| GGACCCGGTT | 1.04 ± 0.029 |
| GGACCGGCCG | 1.01 ± 0.076 |
| GGACGATCGG | 0.9765 ± 0.0046 |
| GGACGGAATG | 0.955 ± 0.02 |
| GGACGGTCTT | 1.01 ± 0.043 |
| GGACGTAGTT | 0.9578 ± 0.0095 |

| Sequence | switch fluorescence ratio |
| --- | --- |
| GGACTAGTTA | 0.99 ± 0.021 |
| GGACTGGGGA | 1.0045 ± 0.00084 |
| GGACTGGTCG | 1 ± 0.022 |
| GGACTTCGCG | 1.01 ± 0.085 |
| GGACTTGTCT | 1.01 ± 0.053 |
| GGACTTTTTT | 1.03 ± 0.016 |
| GGAGAATTTA | 1.02 ± 0.034 |
| GGAGACGATA | 1.04 ± 0.0032 |
| GGAGACTCAA | 0.988 ± 0.016 |
| GGAGAGGGTC | 1.049 ± 0.0064 |
| GGAGAGTGCT | 0.985 ± 0.015 |
| GGAGAGTGGT | 1.02 ± 0.023 |
| GGAGATATTT | 1 ± 0.011 |
| GGAGATCAGG | 1.03 ± 0.027 |
| GGAGATGGGG | 1.02 ± 0.018 |
| GGAGATTGAA | 0.992 ± 0.019 |
| GGAGATTTGG | 0.979 ± 0.011 |
| GGAGCAGCTA | 1.06 ± 0.028 |
| GGAGCATGAG | 2.47 ± 0.14 |
| GGAGCATGGG | 1.19 ± 0.04 |
| GGAGCGCTGG | 1.05 ± 0.02 |
| GGAGCGGCGG | 1.02 ± 0.069 |
| GGAGCGGTGG | 0.955 ± 0.042 |

| Sequence | switch fluorescence ratio |
| --- | --- |
| GGAGGAGGGG | 1 ± 0.023 |
| GGAGGCAGGA | 1.015 ± 0.0036 |
| GGAGGGACTT | 1.39 ± 0.68 |
| GGAGGGAGCG | 1 ± 0.03 |
| GGAGGGGGAA | 1 ± 0.031 |
| GGAGGGGGGC | 1.09 ± 0.16 |
| GGAGGGGTTT | 1.01 ± 0.04 |
| GGAGGTAATT | 0.981 ± 0.027 |
| GGAGGTAGTC | 0.99 ± 0.033 |
| GGAGTAGGTA | 1 ± 0.031 |
| GGAGTATTAG | 0.999 ± 0.072 |
| GGAGTCGGGC | 0.981 ± 0.04 |
| GGAGTGCCAG | 1 ± 0.027 |
| GGAGTGGGAC | 1.12 ± 0.14 |
| GGAGTGGGGG | 0.984 ± 0.036 |
| GGAGTTCGGG | 0.978 ± 0.021 |
| GGAGTTCGTT | 1.09 ± 0.052 |
| GGAGTTGCGG | 0.9089 ± 0.0048 |
| GGAGTTTAGT | 1.008 ± 0.0016 |
| GGAGTTTTTT | 0.968 ± 0.029 |
| GGATAAAAGG | 0.988 ± 0.011 |
| GGATAAACGG | 1.03 ± 0.082 |
| GGATAAAGAC | 1.37 ± 0.41 |

| Sequence | switch fluorescence ratio |
| --- | --- |
| GGATAATGCT | 0.9597 ± 0.0094 |
| GGATACATGT | 1.003 ± 0.0031 |
| GGATACGGGA | 1.05 ± 0.084 |
| GGATACTCGC | 1.126 ± 0.01 |
| GGATACTGCA | 1.043 ± 0.0054 |
| GGATAGGGTA | 0.974 ± 0.043 |
| GGATAGGTTT | 1.01 ± 0.034 |
| GGATAGTGTG | 0.997 ± 0.014 |
| GGATATAAAT | 0.972 ± 0.0099 |
| GGATATCAAG | 1.01 ± 0.016 |
| GGATATGTGG | 0.99 ± 0.025 |
| GGATATTCCA | 1.01 ± 0.067 |
| GGATCAAAAG | 1.01 ± 0.018 |
| GGATCATGGT | 1.034 ± 0.007 |
| GGATCTAGAA | 0.9644 ± 0.008 |
| GGATCTGGTG | 1.022 ± 0.0079 |
| GGATGAAACT | 1.012 ± 0.0044 |
| GGATGAGCGA | 1.18 ± 0.19 |
| GGATGAGTTA | 0.983 ± 0.015 |
